# Assay: soluble on expression in E. coli; label from the status in PepcDB or PDB records
row,Sequence,soluble on expression in E. coli
1,MSQILNVTLITETFTPEINGVANTLGRLCDGLRLRGHRVELVRPRQSDEINSGAADDLMLCRGWPIPGYPGLQWGQSSMHKLLRRWQRRRPDVLYIATEGPLGLSALRAARRLGIAVISGFHTNFPQYTQQYGMGFITRLLTHYLRWFHNRSRVTLVPSVSQKVELERRGFERIELLSRGVDSQLFNPSRCSQALRESWGLQTGDIGVIHVGRLAPEKNLGLLKTGFEALKSSYPQRTIKLIVVGDGPQRSELEQQIPDAIFCGTLRGEVLATHYASADMFLFPSLTETFGNVVLEALASGLGVVAYDEAAAGQHIRHGHNGALAMPGDETAFVDAARWLLEDSENLRRVRLNARQHASRQGWTAIIDQFERQLRDACPSESSKTLRQTSDKTIRPVSSMPLDLEHHHHHH,not soluble
2,MSQKRQTKFQNGKSKTSENSSAKREKGMVVNSKEISDAVGQSKFVLENLRHYTVHPNLAQYYKPLKATALQKFLAQNRKNTSFMLKVTQYDQDKTLLIMTNNPPPCSITQQDKESASKYFSKELLLKVMESHHQHKPTENLWLPRMPQKKKLRSKLKPIFPLILSDDPTSKREQWFRFSTDNDFKSEGKYSKVYALRTQKKMYPQLTFAPVHERDMRKDASKKSASERPISKVIREPLTLASLLEDMPTRTAPGESAFRNGRAPQWIIKKATVIG,soluble
3,MSQLDLLNIVHRPRRLRRTAALRNLVQENTLTVNDLVFPLFVMPGTNAVEEVSSMPGSFRFTIDRAVEECKELYDLGIQGIDLFGIPEQKTEDGSEAYNDNGILQQAIRAIKKAVPELCIMTDVALDPFTPFGHDGLVKDGIILNDETVEVLQKMAVSHAEAGADFVSPSDMMDGRIGAIREALDETDHSDVGILSYAAKYASSFYGPFRDALHSAPQFGDKSTYQMNPANTEEAMKEVELDIVEGADIVMVKPGLAYLDIVWRTKERFDVPVAIYHVSGEYAMVKAAAAKGWIDEDRVMMESLLCMKRAGADIIFTYYAKEAAKKLR,soluble
4,MSQLVLDLKCLKDKIATNYDIHNNVYGGNGMEPNIIHPSKRFRIVVRLVDFLFCKSDEEFIKGFFCQMIVRNLHCLNSTNGAEEMRLYMSERLFSAHKDDLRLINGQVLDVRIGVWYGIHQSPPIFEIIDFKILSRNDVRDFCEFVKSPLGEKFLNISNS,not soluble
5,MSQPYSAVADATGKAYVDIRVCDLLVQQGNMPKGLDSDFQIDGLYVVLRCQEDVRRTSCLWSTAPGACATELQSAAMQLGAAAGAYEAQSDDALVWNEMFRFVVPPALPLSTPAISPRAPHSPPSADGGDPQGGFCAPYTPPLPLSGSASGVAGGLHDIPGGIALPMSTAASGGMRAAGSSGFPVPYTPQPSSLAISTPPLHSAAAQKQPSGGGNGARATEAVASHASLFYPTIELELWRSAPLSENLLGRYKYHVPMELMQGGYALSNLDAVVERVVLLRTKDAPSIMGNLYGWSGHRLSLRLRVQAVGLAPLMAAWSPQQGSEATMTAASTIGSAAYPAPFPTGMLGNTVTGAPPYVAAGVYGAPLGTLNPVLVNLLAPLGVPTGGSGAGQLAPTVMMSMPGGMGGDNLHKPGQPPFFSMFPPASEAPADVGGKMFHPHLPGVLPATPQSSGQGILGDGDLTWQSSTTQPTVYPPYRLPR,not soluble
6,MSQQVIIFDTTLRDGEQALQASLSVKEKLQIALALERMGVDVMEVGFPVSSPGDFESVQTIARQVKNSRVCALARCVEKDIDVAAESLKVAEAFRIHTFIATSPMHIATKLRSTLDEVIERAIYMVKRARNYTDDVEFSCEDAGRTPIADLARVVEAAINAGATTINIPDTVGYTMPFEFAGIISGLYERVPNIDKAIISVHTHDDLGLAVGNSLAAVHAGARQVEGAMNGIGERAGNCSLEEVIMAIKVRKDILNVHTAINHQEIWRTSQLVSQICNMPIPANKAIVGSGAFAHSSGIHQDGVLKNRENYEIMTPESIGLNQIQLNLTSRSGRAAVKHRMDEMGYKESEYNLDNLYDAFLKLADKKGQVFDYDLEALAFIGKQQEEPEHFRLDYFSVQSGSNDIATAAVKLACGEEVKAEAANGNGPVDAVYQAINRITDYNVELVKYSLTAKGHGKDALGQVDIVANYNGRRFHGVGLATDIVESSAKAMVHVLNNIWRATEVEKELQRKAQHNENNKETV,not soluble
7,MSQRGLEALLRPKSIAVIGASMKPNRAGYLMMRNLLAGGFNGPVLPVTPAWKAVLGVLAWPDIASLPFTPDLAVLCTNASRNLALLEELGEKGCKTCIILSAPASQHEDLRACALRHNMRLLGPNSLGLLAPWQGLNASFSPVPIKRGKLAFISQSAAVSNTILDWAQQREMGFSYFIALGDSLDIDVDELLDYLARDSKTSAILLYLEQLSDARRFVSAARSASRNKPILVIKSGRSPAAQRLLNTTAGMDPAWDAAIQRAGLLRVQDTHELFSAVETLSHMRPLRGDRLMIISNGAAPAALALDALWSRNGKLATLSEETCQKLRDALPGHVAISNPLDLRDDASSEHYVKTLDILLHSQDFDALMVIHSPSAAAPATEIAQVLIEAVKHHPRSKYVSLLTNWCGEHSSQEARRLFSEAGLPTYRTPEGTITAFMHMVEYRRNQKQLRETPALPSNLTSNTAKAHLLLQQAIAEGATSLDTHEVQPILQSYGMNTLPTWIASDSTEAVHIAEQIGYPVALKLRSPDIPHKSEVQGVMLYLRTANEVQQAANAIFDRVKMTWPQARVHGLLVQSMANRAGAQELRVVVEHDPVFGPLIMLGEGGVEWRPEDQAVVALPPLNMNLARYLVIQGIKSKKIRARSALRPLDVAGLSQLLVQVSNLIVDCPEIQRLDIHPLLASGSEFTALDVTLDIAPFEGDNESRLAVRPYPHQLEEWVELKNGERCLFRPILPEDEPQLQQFISRVTKEDLYYRYFSEINEFTHEDLANMTQIDYDREMAFVAVRRIDQTEEILGVTRAISDPDNIDAEFAVLVRSDLKGLGLGRRLMEKLITYTRDHGLQRLNGITMPNNRGMVALARKLGFNVDIQLEEGIVGLTLNLAQREES,not soluble
8,MSQTVNIVGAGLAGSEAAYQLAQRGIKVNLIEMRPVKQTPAHHTDKFAELVCSNSLRGNALTNGVGVLKEEMRRLDSLIISAADKARVPAGGALAVDRHDFSGYITETLRNHPNVTVINEEINSIPEGYTIIATGPLTTENLAKEIVDITGKDQLYFYDAAAPIIEKESIDMDKVYLKSRYDKGEAAYLNCPMTEEEFNRFYDAVLEAEVAPTNEFEKEKYFEGCMPFEVMAERGRKTLLFGPMKPVGLEDPKTGKRPFAVVQLRQDDAAGTLYNIVGFQTHLKWGAQKEVIRLIPGLENVDIVRYGVMHRNTFINSPDVLNEKYELIKEDRIQFAGQMTGVEGYVESAASGLVAGINLAHKLLDKGEVIFPRETMIGSMAYYISHAKNEKNFQPMNANFGLLPSLEKRIKDKKERYEAQANRALEYLENYKKTLLEHHHHHH,soluble
9,MSQVQFSHNPLFCIDIIKTYKPDFTPRVAFILGSGLGALADQIENAVAISYEKLPGFPVSTVHGHAGELVLGHLQGVPVVCMKGRGHFYEGRGMTIMTDAIRTFKLLGCELLFCTNAAGSLRPEVGAGSLVALKDHINTMPGTPMVGLNDDRFGERFFSLANAYDAEYRALLQKVAKEEGFPLTEGVFVSYPGPNFETAAEIRMMQIIGGDVVGMSVVPEVISARHCDLKVVAVSAITNMAEGLSDVKLSHAQTLAAAELSKQNFINLICGFLRKIA,soluble
10,MSRFLISSFILIAFVLQFGEGSIAVQEVKDGEKVQIELFKGAKAIQRSVDAGEQIFHFEGENKGVFVDANGKAIDSSNYEENNGHLVIKKFTKADVGSYSEYPTKIIKTKTDHGFSGVAAPVLKLSLQ,soluble
11,MSRPTIIINDLDAERIDILLEQPAYAGLPIADALNAELDRAQMCSPEEMPHDVVTMNSRVKFRNLSDGEVRVRTLVYPAKMTDSNTQLSVMAPVGAALLGLRVGDSIHWELPGGVATHLEVLELEYQPEAAGDYLL,soluble
12,MSRQRLGKSMIKANSWSSNLNAYRILQEPQSLTEEPPPIQTICPVQPESMAPPEHHNHRHLVTQEENRGRHLVGNPMRRTRSDVGAHGLTPHQPLLTRSKSDHGLERVATPLAFEVQSVGSEQTASSAEVMTAAGRRHSLLTDYQAAIARPLDLDRVLAAVKLRAAAEIYCKKNNLARLSPRPPRTSAGNQRLDALVNRPVDELIAEVQAAPRKFSRTQLTDVAQRHLLAALNIDIDQYKKGVHKAGLYEGLHSVAGRLVSVAAAAVSAGVSEVPGVSKTVTKTVKILSHQLPSSVVNPALTGGLRSVTDVMESFKRVGGLPVLSPQIDKSPDMGKIVKAAREMRGQLDEAVGHFARAHKSDPQALPRLVDAFLALHGVADRQYRRRIGLNRTQTYGKGWGMAVNGVAAIGTVVSTTVPVVGQVAGPAILASTIPLQWGAGYLDERRNKHRYNLRANTKWGDFLKDNAANIHFKDLTVEHISESKLRQSFLTQPEVQIAAIREVYEDTIGELMRRRLEMQKDIDVQREAGRPMRALALKQLRELDAEIDVTKMHADQFESFNMDRWSAIPEDSVIGRCLDDLDNLQKANRRARLRKPGEGAQIVQRYVQAFQGGVSTGTTLPVVDAVASIDSFHVHDSQGHDHGLQPAPLAVAAGTGAAGGAVFTGATGEVRMSKADNKKIMTQLRVDPEVYTADAEHWRFRAGNRDVDLRTSAGYKQHAHTRWDELALVAQALKHGLTSGPVGLKNLAVAKVELRQARASLQSALDALAASGLPHRTPDSARAPTISSMKDQLYDYSEVRRHLGV,not soluble
13,MSRTWIRNPLAIFTANGLDAAGGLVVEDGRIVELLGAGQQPAQPCASQFDASRHVVLPGLVNTHHHFYQTLTRAWAPVVNQPLFPWLKTLYPVWARLTPEKLELATKVALAELLLSGCTTAADHHYLFPGGLEQAIDVQAGVVEELGMRAMLTRGSMSLGEKDGGLPPQQTVQEAETILADSERLIARYHQRGDGARVQIALAPCSPFSVTPEIMRASAEVAARHDVRLHTHLAETLDEEDFCLQRFGLRTVDYLDSVGWLGPRTWLAHGIHFNAEEIRRLGEAGTGICHCPSSNMRLASGICPTVELEAAGAPIGLGVDGSASNDASNMILEARQALYLQRLRYGAERITPELALGWATRGSARLLGRSDIGELAPGKQADLALFKLDELRFSGSHDPLSALLLCAADRADRVMVGGAWRVVDGAVEGLDLAALIARHRAAASALIAG,not soluble
14,MSRYCSQCGKSRKACICQWIVPLASGVELIILQHTSEAHRPLGTARILNLSLKNCTCLIGEDFSDDAQLNALLTDEAYQHFILYPSEQSQCLSDIACTESERTRKTRLILLDGTWKKAYKMWQLSTNLHTLTTVKLPEDLQGHYTIRKAPSDNSLSTVEAGFYALSLLEPDNDFSPLLNAFDRMIEFQIAQMPPGVFEKNYLNKLEHHHHHH,not soluble
15,MSSAKLFTPLKVGAITATNRVFMAPLTRLRSIEPGDIPTPLMAEYYRQRASAGLIISEATQISAQAKGYAGAPGLHSDEQIAAWKKITQGVHAQGGHMAVQLWHTGRISHASLQPGGQAPVAPSAINAGTRTSLRDENGQAIRVETSTPRALDTHEIPGIVNDFRQAIANAREAGFDLVELHSAHGYLLHQFLSPSSNHRTDRYGGGVENRARLVLEVVDAGIKEWGADRIGIRLSPVGTFQNVDNGPNEEADALYLIEALGKRGIAYLHMSEPDWAGGEPYSDAFREKVRARFHGPIIGAGAYTPEKAEDLIEKGLIDAVAFGRDYIANPDLVARLQRKAELNPQRPESFYGGGAEGYTDYPTL,not soluble
16,MSSALLRAAYAYDRLRAHPPEVAGQIATAMASAVHPKGEEPVFLELGVGTGRIALPLIARGYRYIALDADAAMLEVFRQKIAGVDRKVQVVQADARAIPLPDESVHGVIVVHLWHLVPDWPKVLAEAIRVLKPGGALLEGWDQAEASPEWTLQERWRAFAAEEGFPVERGLHAKRLKEVEEALRRLGLKPRTREVARWREERTPREALEALSERLYSFTQGLPEPVHARVMERLWAWAEAELGDLDRPFPVEKRFLLRVSRLG,soluble

# From the DeepSol protein solubility set
